Data taken from patent publication US20190367592A1 (AC IMMUNE, published 2019).
Where a chain is given by its changes, count along the chain named. Where no end group is shown, it is not given here.

B1: hu125B11.v17 (HC3+LC1) (antibody, IgG1, V domains shown)
VH: EVQLVESGGGLVQPGGSLRLSCAASRFIFSNYWMNWVRQAPGKGLEWVAQIRLKSDNYATHYAESVKGRFTISRDDSKNTLYLQMNSLRAEDTAVYYCTGGTTYWGQGTLVTVSS
VL: DIQMTQSPSSLSASVGDRVTITCKASQNVGTAVAWYQQKPGKSPKLLIYSASIRYTGVPSRFSGSGSGTDFTLTISSLQPEDFATYFCQQFRTYPYTFGQGTKVEIK
notes: also called hu125B11 HC3 + 125B11 LC1
B2: hu125B11.v26 (HC4+LC2) (antibody, IgG1, V domains shown)
VH: B1 VH with D76N
VL: B1 VL with S43A
notes: also called hu125B11 HC4 + 125B11 LC2
B3: hu125B11.v28 (HC4+LC4) (antibody, IgG1, V domains shown)
VH: B1 VH with D76N
VL: B1 VL with S43A, F87Y
notes: also called hu125B11 HC4 + 125B11 LC4
B4: hu94B2.v105 (94B2.HC1 + 94B2.LC13) (antibody, IgG1, V domains shown)
VH: EVQLVQSGAEVKKPGASVKVSCKASGYSLTGYTMNWVRQAPGQGLEWIGLISPYNGVTSYNQKFKGRATLTVDKSTSTAYLELSSLRSEDTAVYYCARQGAYWGQGTLVTVSS
VL: DIVMTQTPLSLPVTPGQPASISCKSSQSLLDSDGKTYLNWLLQKPGQSPQRLIYLVSKLDSGVPDRFSGSGSGTDFTLKISRVEAEDVGVYYCWQGTHFPWTFGQGTKVEIK
notes: also called hu94B2 HC1 + LC13
B5: hu37D3-H9.v28.A4 hIgG1 (antibody, V domains shown)
VH: EVQLVESGGGLVQPGGSLRLSCAASGLIFRSYGMSWVRQAPGKGLEWVATINSGGTYTYYPDSVKGRFTISRDNSKNTLYLQMNSLRAEDTAVYYCANSYSGAMDYWGQGTLVTVSS
VL: DDVLTQTPLSLPVTPGQPASISCRSSQSIVHSNGNTYLEWYLQKPGQSPQLLIYKVSNRFSGVPDRFSGSGSGTDFTLKISRVEAEDVGVYYCFQGSLVPWTFGQGTKVEIK
notes: human IgG1, kappa
B6: hu37D3-H9.v1 hIgG4.S228P (antibody)
heavy: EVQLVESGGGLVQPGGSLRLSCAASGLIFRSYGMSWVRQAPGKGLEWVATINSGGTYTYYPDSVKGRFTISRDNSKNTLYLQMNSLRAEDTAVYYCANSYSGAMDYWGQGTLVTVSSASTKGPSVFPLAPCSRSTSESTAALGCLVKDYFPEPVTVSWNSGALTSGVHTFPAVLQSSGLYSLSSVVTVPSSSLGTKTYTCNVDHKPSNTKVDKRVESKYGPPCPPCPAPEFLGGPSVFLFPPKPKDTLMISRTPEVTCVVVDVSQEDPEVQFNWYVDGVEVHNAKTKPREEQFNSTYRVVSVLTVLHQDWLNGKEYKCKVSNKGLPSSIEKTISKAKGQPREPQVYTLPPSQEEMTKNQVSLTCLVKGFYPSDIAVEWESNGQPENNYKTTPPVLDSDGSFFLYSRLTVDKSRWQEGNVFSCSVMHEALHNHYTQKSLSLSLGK
light: EDQLTQSPSSLSASVGDRVTITCRSSQSIVHSNGNTYFEWYQQKPGKSPKLLIYKVSNRFSGVPSRFSGSGSGTDFTLTISSLQPEDFATYYCFQGSLVPWTFGQGTKVEIKRTVAAPSVFIFPPSDEQLKSGTASVVCLLNNFYPREAKVQWKVDNALQSGNSQESVTEQDSKDSTYSLSSTLTLSKADYEKHKVYACEVTHQGLSSPVTKSFNRGEC
notes: also called hu37D3.v1 hIgG4
B7: 54C1-H11 (antibody, mouse IgG2a, V domains shown)
VH: EVQLVESGGDLVKPGGSLKVSCVASGFTFRSYGMSWVRQTPDKRLDWVATISSGGNYTYYPDSVKGRFTISRDNAKNTLYLQMSSLKSEDTAMYYCASSYSGAMDYWGQGTSVTVSS
VL: DTVMTQSPLSLPVSLGDQASISCRSSQSIVHSNGNTYLEWYLQKPGQSPKLLIYTVSNRFSGVPDRFSGSGSGTDFTLKISRVEAEDLGVYYCFQGSHVPWTFGGGTKLEIK
B8: 123E9-A1 (antibody, mouse IgG2a, V domains shown)
VH: EVQLQQSGPELVKPGASVKMSCKASGYTFTDYYMKWVKQSHGKSLEWIGDIDPNNGGTSYNQKFKGKATLTVDKSSSTAYMQLNSLTSEDSAVYYCARSAGFGDSFSFWGLGTLVTVSA
VL: B7 VL with T2V, V3L, S7T, T55K, V90F, W101P
B9: 94B2-C1 (antibody, mouse IgG2a, V domains shown)
VH: EVQLQQSGPELVKPGASMKISCKASGYSLTGYTMNWVKQSHGKNLEWIGLISPYNGVTSYNQKFKGKATLTVDKSSNTAYMELLSLTFEDSAVYYCARQGAYWGQGTLVTVSA
VL: not shown
B10: 89F4-A1 (antibody, mouse IgG2a, V domains shown)
VH: EVQLVESGGGLVQPKGSLKLSCAASGFTFNTYAMNWVRQAPGKGLEWVARIRSKSNNYAAYFADSVKDRFTISRDDSQTMLYLQMNNLKSEDTAMYYCVSGGNYVPFAYWGQGTLVTVSA
VL: NIMMTQSPSSLAVSAGEKVTMSCKSSQSVFYSSEQRNYLAWYQQKPGQSPKLLISWASTRESGVPDRFTGSGSGTDFTLTISSVQGEDLAVYYCHQYLSSFTFGSGTKLEIK

target: T1, recombinant human Tau monomer, 2N4R isoform (amino acids 2-441) (human, UniProt P10636-8 2-441); assay: SPR high-resolution kinetics, hIgG1
T1 construct: range 2-441; N-terminal His-tag removed with TEV protease; also called monomeric Tau
T1 sequence (P10636 other isoform, or with tags, fused parts or gaps limits assumed): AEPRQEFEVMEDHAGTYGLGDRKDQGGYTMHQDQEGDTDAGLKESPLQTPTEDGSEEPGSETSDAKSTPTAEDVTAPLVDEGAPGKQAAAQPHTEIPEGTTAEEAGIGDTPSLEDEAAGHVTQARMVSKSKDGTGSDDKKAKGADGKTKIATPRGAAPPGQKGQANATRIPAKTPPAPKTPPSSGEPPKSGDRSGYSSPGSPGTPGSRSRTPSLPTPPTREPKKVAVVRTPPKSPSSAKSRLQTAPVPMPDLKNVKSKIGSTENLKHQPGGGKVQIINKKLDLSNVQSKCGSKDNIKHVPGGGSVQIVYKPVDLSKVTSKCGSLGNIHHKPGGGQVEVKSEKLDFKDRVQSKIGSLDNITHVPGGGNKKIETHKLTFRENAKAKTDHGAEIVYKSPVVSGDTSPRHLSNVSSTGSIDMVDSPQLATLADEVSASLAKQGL

| Binder | Kd | koff | kon |
| --- | --- | --- | --- |
| B1 | 10.5 nM | 0.0008 s⁻¹ | 80000 M⁻¹ s⁻¹ |
| B2 | 9.5 nM | 0.0007 s⁻¹ | 70000 M⁻¹ s⁻¹ |
| B3 | 10.2 nM | 0.0007 s⁻¹ | 70000 M⁻¹ s⁻¹ |
| B4 | 3.7 nM | 0.0003 s⁻¹ | 80000 M⁻¹ s⁻¹ |

target: T1, recombinant human Tau monomer, 2N4R …; assay: SPR screen, hIgG captured, Tau monomer analyte
Description: (§1) Antibody 125B11-H3 was humanized onto VH3 and Vκ1 consensus frameworks. The heavy chain graft included murine residues at position 78 (Kabat numbering system). The Vκ1 graft included murine residues in framework positions 43 and 87. The light chain of 113F5-F7 was also humanized onto the Vκ1 framework, with additional murine residues at framework positions 43 and 87. Humanized variant heavy chains (125B11) and light chains (125B11 and 113F5-F7) were co-transfected in multiple combinations and purified in 96-well format as described above. Humanized variants were then screened for affinity for human Tau monomer using the Biacore human IgG capture kit, a Series S CM5 chip and a Biacore T200 instrument. Antibodies were diluted to 2 μg/ml and captured for 15 seconds at 10 μl/min. Association and dissociation of 0, 100 and 500 nM human Tau monomer in HBSP was monitored for 180s and 300s respectively at a flow rate of 40 μl/min. A 1:1 binding model was applied to the results (Table 9).

| Binder | Kd |
| --- | --- |
| B1 | 18 nM |
| B2 | 14 nM |
| B3 | 17 nM |

target: T1, recombinant human Tau monomer, 2N4R …; assay: SPR screen, hIgG captured, Tau monomer analyte; remark: another data set of the same source
Description: as §1
Variants hu125B11.v17 (HC3+LC1), hu125B11.v26 (HC4+LC2) and hu125B 11.v28 (HC4+LC4) were selected for high-resolution kinetic analysis based on the affinity screen (Table 10). Antibody 94B2-C1 was humanized onto VH1 and Vx2 frameworks. The heavy chain graft also included murine residues at position 28, 29, 67, 69, 71, and 73 (Kabat numbering system). The Vκ2 graft also included murine residues in framework positions 2, 36, and 46. […] Variant hu94B2.v105 (heavy chain variant 94B2.HCl, light chain variant 94B2.LC13) was selected for detailed SPR characterization (Table 11).

| Binder | Kd |
| --- | --- |
| B4 | 4.1 nM |

target: T1, recombinant human Tau monomer, 2N4R …; assay: SPR, hIgG captured, Tau monomer analyte, 1:1 fit
Procedure: Affinity of selected antibodies was assessed at 25° C. using a Biacore T200 instrument, the GE Biacore human IgG capture kit and a CM5 Series S chip. The hIgG were diluted to 0.25 μg/ml in 10 mM HEPES pH7.4, 150 mM NaCl, 0.05% Tween 20 (running buffer, HBSP) and captured at a flow rate of 10 μl/min for 150 seconds. Kinetic data was collected for Human Tau monomer injected at concentrations of 0, 0.4, 1.2, 3.7, 11, 11, 33 and 100 nM in HBSP, using a flow rate of 30 μl/min, a 300 second association phase and a 600 second dissociation phase. Between cycles the surface was regenerated using two sequential 30 second injections of 3M MgCl at 10 μl/min. Data was fit to a 1:1 binding model (Table 15).

| Binder | Kd | koff | kon |
| --- | --- | --- | --- |
| B5 | 1.5 nM | 0.0011 s⁻¹ | 690000 M⁻¹ s⁻¹ |
| B6 | 2 nM | 0.0013 s⁻¹ | 670000 M⁻¹ s⁻¹ |

target: T2, full-length human Tau (flTau) (human, UniProt P10636-8 1-441); assay: SPR, hybridoma Ab on anti-IgG chip, flTau analyte
T2 construct: range 1-441; bought (SignalChem); also called human Tau-441
Procedure: Affinity of non-purified antibodies in serum-free hybridoma supernatants was estimated by surface plasmon resonance using a Biacore T-100 instrument (GE Healthcare, United Kingdom). Antibodies were immobilized onto an anti-IgG biosensor chip, and flTau (SignalChem, Canada) was used as the target analyte. Kinetic analysis was done using a 1:1 Langmuir fit model.
For affinity measurements to flTau, antibodies were measured using SPR on a Biacore instrument, with the KDs determined. Biacore affinity measurements were done by immobilizing antibodies on an anti-IgG chip and using flTau as the target analyte.

T2 sequence (P10636 other isoform, or with tags, fused parts or gaps limits assumed): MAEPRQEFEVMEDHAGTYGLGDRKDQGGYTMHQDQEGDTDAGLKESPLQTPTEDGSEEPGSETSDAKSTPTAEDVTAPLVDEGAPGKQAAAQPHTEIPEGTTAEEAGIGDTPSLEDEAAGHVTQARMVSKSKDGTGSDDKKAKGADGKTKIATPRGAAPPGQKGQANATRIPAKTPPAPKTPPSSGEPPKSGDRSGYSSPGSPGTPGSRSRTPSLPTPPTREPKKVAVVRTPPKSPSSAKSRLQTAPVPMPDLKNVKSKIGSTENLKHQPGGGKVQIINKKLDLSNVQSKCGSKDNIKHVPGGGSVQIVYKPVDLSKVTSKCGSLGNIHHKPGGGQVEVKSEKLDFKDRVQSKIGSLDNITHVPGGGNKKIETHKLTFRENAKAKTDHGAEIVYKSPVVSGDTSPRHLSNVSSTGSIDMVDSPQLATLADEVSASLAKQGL

| Binder | Kd |
| --- | --- |
| B7 | 1.5 nM |
| B8 | 1.8 nM |
| B9 | 1.9 nM |
| B10 | 2.9 nM |

target: T1, recombinant human Tau monomer, 2N4R …; assay: SPR, mIgG2a captured, Tau monomer analyte, 1:1 fit
Method in brief: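 Antibodies in mIgG2a format captured on anti-mouse IgG surface at 1 μg/ml (30 or 45 s) or 0.1 μg/ml (70 or 150 s), 10 μl/min, in HBSP (10 mM HEPES pH7.4, 150 mM NaCl, 0.05% Tween 20). Tau monomer flowed as analyte; association 180-480 s, dissociation 300-600 s, 1:1 fit.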

| Binder | Kd | koff | kon |
| --- | --- | --- | --- |
| B7 | 0.6 nM | 0.0002 s⁻¹ | 300000 M⁻¹ s⁻¹ |
| B8 | 52 nM | 0.02 s⁻¹ | 400000 M⁻¹ s⁻¹ |
| B9 | 6 nM | 0.0003 s⁻¹ | 50000 M⁻¹ s⁻¹ |
| B10 | 27 nM | 0.007 s⁻¹ | 300000 M⁻¹ s⁻¹ |

Target: T3, MAPT(10-24) (human, also: biotinylated, site not given here)
T3 construct: also called Tau fragment 10-24
T3 peptide: VMEDHAGTYGLGDRK
Assay: ELISA on Tau 15-mer peptides, O.D.; conditions of this panel not given

| Binder | binding result |
| --- | --- |
| B7 | binds |
| B8 | no binding (tested: not given) |
| B9 | binds |
| B10 | no binding (tested: not given) |

Target: T4, Tau fragment 1-15 (human, UniProt P10636-8 1-15)
T4 construct: range 1-15
T4 peptide (looked up): MAEPRQEFEVMEDHA
Assay: as above

| Binder | binding result |
| --- | --- |
| B7 | no binding (tested: not given) |
| B8 | no binding (tested: not given) |
| B9 | binds |
| B10 | no binding (tested: not given) |

Target: T5, Tau fragment 19-33 (human, UniProt P10636-8 19-33, not fully specified)
T5 construct: range 19-33
T5 peptide (looked up): GLGDRKDQGGYTMHQ
Assay: as above

| Binder | binding result |
| --- | --- |
| B7 | no binding (tested: not given) |
| B8 | binds |
| B10 | no binding (tested: not given) |

Target: T6, Tau fragment 28-42 (human, UniProt P10636-8 28-42, not fully specified)
T6 construct: range 28-42
T6 peptide (looked up): GYTMHQDQEGDTDAG
Assay: as above

| Binder | binding result |
| --- | --- |
| B7 | no binding (tested: not given) |
| B8 | binds |
| B9 | no binding (tested: not given) |
| B10 | binds |

Target: T7, Tau fragment 37-51 (human, UniProt P10636-8 37-51)
T7 construct: range 37-51
T7 peptide (looked up): GDTDAGLKESPLQTP
Assay: as above

| Binder | binding result |
| --- | --- |
| B7 | no binding (tested: not given) |
| B8 | no binding (tested: not given) |
| B9 | no binding (tested: not given) |
| B10 | binds |

target: T1, recombinant human Tau monomer, 2N4R …; assay: SPR single-cycle, human Fab capture kit, Tau monomer analyte; mean ± range, n=2
Procedure: Affinity of the humanized antibody variants was measured at 25° C. using a Biacore T200 instrument, the GE Biacore human FAb capture kit, and a CM5 Series S chip. Antibodies were diluted to 1 μg/ml in HBSP (10 mM HEPES pH7.4, 150 mM NaCl, 0.05% Tween 20) and captured at a flow rate of 10 μl/min for 180 seconds. Kinetic data were collected for human Tau monomer injected at 1.2, 3.7, 11, 33 and 100 nM in HBSP using the Single Cycle Kinetics methodology and a flow rate of 30 μl/min. Each concentration of Tau monomer was injected for a period of 3 minutes and dissociation was monitored for ten minutes. Between cycles, the surface was regenerated with two sequential one-minute injections of 10 mM glycine pH2.1. Data was fit to a 1:1 binding model using BIAEvaluation software. Each antibody was analyzed twice within the experiment; data in Table 22 are shown as mean±range.

| Binder | Kd | koff | kon |
| --- | --- | --- | --- |
| B6 | 2.3 nM | 0.001 s⁻¹ | 600000 M⁻¹ s⁻¹ |
